To fix the notation:
T1: drRecJ WT (Deinococcus radiodurans, UniProt D0EM60 1-705)
T1 sequence: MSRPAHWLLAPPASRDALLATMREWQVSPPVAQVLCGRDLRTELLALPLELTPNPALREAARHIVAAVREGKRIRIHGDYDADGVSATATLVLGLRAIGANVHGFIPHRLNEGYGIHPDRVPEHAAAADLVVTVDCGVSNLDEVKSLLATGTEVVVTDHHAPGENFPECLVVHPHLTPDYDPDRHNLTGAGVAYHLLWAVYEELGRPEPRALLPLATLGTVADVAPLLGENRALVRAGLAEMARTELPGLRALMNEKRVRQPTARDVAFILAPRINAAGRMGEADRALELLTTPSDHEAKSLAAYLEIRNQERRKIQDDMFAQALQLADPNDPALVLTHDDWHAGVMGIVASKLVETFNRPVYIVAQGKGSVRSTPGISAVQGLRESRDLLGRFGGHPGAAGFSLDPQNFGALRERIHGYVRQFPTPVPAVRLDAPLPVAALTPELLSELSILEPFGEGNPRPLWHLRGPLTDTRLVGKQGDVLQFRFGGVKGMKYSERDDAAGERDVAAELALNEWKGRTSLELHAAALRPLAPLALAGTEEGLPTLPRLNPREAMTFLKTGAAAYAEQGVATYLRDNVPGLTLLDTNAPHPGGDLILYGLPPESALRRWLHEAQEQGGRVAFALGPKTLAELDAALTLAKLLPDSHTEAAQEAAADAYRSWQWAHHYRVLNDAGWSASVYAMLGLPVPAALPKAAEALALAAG

This data set concerns the target T1, drRecJ WT. Nature of the data set: EMSA; no Mn2+ added; EMSA: 10 nM 3'-6-FAM ssDNA, 50 mM Tris-HCl pH 7.5, 150 mM KCl, 0.1 mg/ml BSA, 1 mM DTT, 5% glycerol, 20 min at 30 C; 8% native PAGE in TBE; Hill fit. To be noted: protein: recombinant; label: 3'-6-FAM.
What is called Kd is the constant that tells how readily two partners part at equilibrium. Take AAAAAAAAAAAAAAAAAAAA (ssDNA, 5'-monophosphate) [KY10, 5'-P-(dA)20]: the Kd was 0.0339 ± 0.00283 µM.

For the molecule AAAAAAAAAAAAAAAAAAAA (ssDNA, 5'-P-dSpacer (tetrahydrofuran abasic, 5'-dRP mimic) added before A1) [KY11, 5'-P-dSpacer-(dA)20], the Kd worked out at 0.0284 ± 0.0031 µM. The result for AAAAAAAAAAAAAAAAAAAA (ssDNA) [KY08, (dA)20] reads 0.0549 ± 0.00518 µM.

The values are drawn from publication PMC7515722, “Participation of RecJ in the base excision repair pathway of Deinococcus radiodurans”.
